Here are results for one molecule from US20130035289A1, “PHARMACEUTICAL COMPOSITION FOR TREATMENT OF THROMBOSIS-RELATED DISEASES COMPRISING A FRAGMENT OF PROLACTIN (PRL)-GROWTH HORMONE (GH)-PLACENTAL LACTOGEN (PL)-FAMILY PROTEIN” (UNIVERSITE DE LIEGE, priority 2010, published 2013).

The test deals with T1, PAI-1 (Homo sapiens, UniProt P05121).
T1 construct: gift of Pr; P. Declerck
In words: Inhibition of PAI-1 anti-proteolytic activity, uPA/plasminogen chromogenic (colorimetric) assay. Format: biochemical. To be noted: uPA, bovine plasminogen, PAI-1, absorbance 405 nm. The method, then:
The main physiological function of PAI-1 is to inhibit uPA and tPA proteolytic activity. […] A chromogenic substrate for plasmin (Spectrozyme PL: 0.5 mM. American Diagnostica INC) in PBS was added to the mixture in 96-well microtitration plates and kept at room temperature. The release of free p-nitro-aniline from the chromogenic substrate was measured spectrophotometrically. The activity of plasmin was determined as the absorbance at 405 nm.

T1 sequence (P05121 24-402): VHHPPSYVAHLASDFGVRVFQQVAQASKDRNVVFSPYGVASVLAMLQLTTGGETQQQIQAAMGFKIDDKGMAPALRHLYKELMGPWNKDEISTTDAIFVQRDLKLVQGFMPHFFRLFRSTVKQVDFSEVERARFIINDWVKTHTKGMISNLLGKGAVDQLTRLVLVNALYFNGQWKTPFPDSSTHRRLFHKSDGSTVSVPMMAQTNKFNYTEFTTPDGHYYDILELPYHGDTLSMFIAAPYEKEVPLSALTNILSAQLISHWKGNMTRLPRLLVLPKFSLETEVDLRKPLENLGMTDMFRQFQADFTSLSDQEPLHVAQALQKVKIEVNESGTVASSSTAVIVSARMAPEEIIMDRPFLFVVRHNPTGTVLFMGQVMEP

B1: 23K PRL: the full fragment (full-length) prolactin (protein)
chain: LPICPGGAARCQVTLRDLFDRAVVLSHYIHNLSSEMFSEFDKRYTHGRGFITKAINSCHTSSLATPEDKEQAQQMNQKDFLSLIVSILRSWNEPLYHLVTEVRGMQEAPEAILSKAVEIEEQTKRLLEGMELIVSQVHPETKENEIYPVWSGLPSLQMADEESRLSAYYNLLHCLRRDSHKIDNYLKLLKCRIIHNNNC
For B1, the “inhibition of PAI-1 function to inhibit uPA and tPA proteolytic activity” value was “did not show any inhibition”.
